In assay [1] the test system is Hsp90 complexes in K562 cell extract. Kind of assay: Nano-LC-MS/MS of PU-beads pull-downs. It counts as binding. The conditions noted are these: protein identified in PU-beads pull-down of K562 cell extract, QSTAR-Elite QTof MS. In outline:
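Lysates pre-cleared overnight at 4 °C with control beads, then pulled down with PU-beads or control beads; eluted proteins (2% SDS boil) gel-separated and analysed by nano LC-MS/MS on a QTof. Mascot identification (p<0.05), spectral counts and sequence coverage evaluated in Scaffold.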

Assay [2] concerns Hsp90 complexes in Mia-PaCa-2 cell extract. Kind of assay: Nano-LC-MS/MS of PU-beads pull-downs. The conditions noted are these: protein identified in PU-beads pull-down of Mia-PaCa-2 cell extract; QSTAR-Elite QTof MS. It counts as binding, human. In outline:
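Lysates pre-cleared overnight at 4 °C with control beads underwent PU-bead pull-down; bound proteins were SDS-eluted, gel-separated, digested and analyzed by nano-LC-MS/MS on a QTof. Identifications used significance p<0.05, 0.4 Da tolerances and one missed cleavage; unique peptide (spectral) counts and sequence coverage were reported.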

B1: NCKAP1 (protein, UniProt Q9Y2A7 2-1128, looked up)
Nck-associated protein 1: SRSVLQPSQQKLAEKLTILNDRGVGMLTRLYNIKKACGDPKAKPSYLIDKNLESAVKFIVRKFPAVETRNNNQQLAQLQKEKSEILKNLALYYFTFVDVMEFKDHVCELLNTIDVCQVFFDITVNFDLTKNYLDLIITYTTLMILLSRIEERKAIIGLYNYAHEMTHGASDREYPRLGQMIVDYENPLKKMMEEFVPHSKSLSDALISLQMVYPRRNLSADQWRNAQLLSLISAPSTMLNPAQSDTMPCEYLSLDAMEKWIIFGFILCHGILNTDATALNLWKLALQSSSCLSLFRDEVFHIHKAAEDLFVNIRGYNKRINDIRECKEAAVSHAGSMHRERRKFLRSALKELATVLSDQPGLLGPKALFVFMALSFARDEIIWLLRHADNMPKKSADDFIDKHIAELIFYMEELRAHVRKYGPVMQRYYVQYLSGFDAVVLNELVQNLSVCPEDESIIMSSFVNTMTSLSVKQVEDGEVFDFRGMRLDWFRLQAYTSVSKASLGLADHRELGKMMNTIIFHTKMVDSLVEMLVETSDLSIFCFYSRAFEKMFQQCLELPSQSRYSIAFPLLCTHFMSCTHELCPEERHHIGDRSLSLCNMFLDEMAKQARNLITDICTEQCTLSDQLLPKHCAKTISQAVNKKSKKQTGKKGEPEREKPGVESMRKNRLVVTNLDKLHTALSELCFSINYVPNMVVWEHTFTPREYLTSHLEIRFTKSIVGMTMYNQATQEIAKPSELLTSVRAYMTVLQSIENYVQIDITRVFNNVLLQQTQHLDSHGEPTITSLYTNWYLETLLRQVSNGHIAYFPAMKAFVNLPTENELTFNAEEYSDISEMRSLSELLGPYGMKFLSESLMWHISSQVAELKKLVVENVDVLTQMRTSFDKPDQMAALFKRLSSVDSVLKRMTIIGVILSFRSLAQEALRDVLSYHIPFLVSSIEDFKDHIPRETDMKVAMNVYELSSAAGLPCEIDPALVVALSSQKSENISPEEEYKIACLLMVFVAVSLPTLASNVMSQYSPAIEGHCNNIHCLAKAINQIAAALFTIHKGSIEDRLKEFLALASSSLLKIGQETDKTTTRNRESVYLLLDMIVQESPFLTMDLLESCFPYVLLRNAYHAVYKQSVTSSA
Consider B1, for which, in assay [1], the “Number of Assigned Spectra, K562 Prep 1” value was determined as 5 and the “Number of Assigned Spectra, K562 Prep 2” value was found to be 1. For the same molecule, in assay [2], the “Number of Assigned Spectra, Mia-Paca 2” value worked out at 2.

B2: NUP54 (protein, UniProt Q7Z3B4 1-507, looked up)
Nucleoporin p54: MAFNFGAPSGTSGTAAATAAPAGGFGGFGTTSTTAGSAFSFSAPTNTGTTGLFGGTQNKGFGFGTGFGTTTGTSTGLGTGLGTGLGFGGFNTQQQQQTTLGGLFSQPTQAPTQSNQLINTASALSAPTLLGDERDAILAKWNQLQAFWGTGKGYFNNNIPPVEFTQENPFCRFKAVGYSCMPSNKDEDGLVVLVFNKKETEIRSQQQQLVESLHKVLGGNQTLTVNVEGTKTLPDDQTEVVIYVVERSPNGTSRRVPATTLYAHFEQANIKTQLQQLGVTLSMTRTELSPAQIKQLLQNPPAGVDPIIWEQAKVDNPDSEKLIPVPMVGFKELLRRLKVQDQMTKQHQTRLDIISEDISELQKNQTTSVAKIAQYKRKLMDLSHRTLQVLIKQEIQRKSGYAIQADEEQLRVQLDTIQGELNAPTQFKGRLNELMSQIRMQNHFGAVRSEERYYIDADLLREIKQHLKQQQEGLSHLISIIKDDLEDIKLVEHGLNETIHIRGGVFS
As for B2, in assay [1], the “Number of Assigned Spectra, K562 Prep 1” value amounted to 1 and the “Number of Assigned Spectra, K562 Prep 2” value worked out at 7. Further, in assay [2], the “Number of Assigned Spectra, Mia-Paca 2” value was 0.

These data come from patent US20220074941A1, “HSP90 COMBINATION THERAPY” (Sloan-Kettering Institute for Cancer Research, priority 2011, published 2022).
